Experimental findings from the nanobody polyreactivity screen of Harvey et al. (2022) are described below.

This series in a line: yeast display, Sf9 membrane polyspecificity reagent, FACS + sequencing; frameworks hold sequencing errors. The essentials: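 Sorting gates, low and high (top ~1%), were placed on anti-HA fluorescence to track expression and on streptavidin fluorescence to track reagent binding. A clone's polyreactivity label is taken from the gate it came out of. The reagent was 10% biotinylated, detergent-solubilized Sf9 membrane, applied for 1 hour at 4 °C to galactose-induced yeast display cells.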
For “QVQLVESGAGLVQAGGSLRISGAASGRIFGKYAMGWYRQPPGKEREFVARISFSGGTTYYADSVKGRFTISRDNAKNTVYLQMNSLKPEDTAVYYCAARRQSGYGRQLDYWGQGTQVTVSS”, the “polyreactivity (PSR sort gate)” value was “high polyreactivity”.
Consider “QVQLVESGAGLVQAGGSLRLCCAASGRIFRSYAMGLYREAPGKERELVAAITWSGGSTYYADSVKGRFTISRDNAKNSVYLQMNSQKPEETAVYYCARVDTKKYSHTGYEYWGQGTQVTVSS”, for which the “polyreactivity (PSR sort gate)” value is reported as “high polyreactivity”.
To “QVQLVESGAGLVQAGGSLRLSCAACGSTFRGNAMGWYRQAPGKEREFVASISRRGGRTNYADSVKGRFTISRDNAKNTVYLQMNSLKPEDTAVYYCAATTVPLGDYWGQGTQVTVSS” belongs “high polyreactivity”.
Regarding “QVQLVESGAGLVQAGGSLRLSCAASGIIFSDNAMGWYRQAPGKEMELVAAIDWSGGSTYYADSVKGRFTISRDNAKNTVYLHMNSLKPEDTAVDYCAAEYRDYVPVNVTGDYWGQGTQVTVSS”, the “polyreactivity (PSR sort gate)” value was “low polyreactivity”.
“QVQLVESGAGLVQAGGSLRLSCAASGITFASYGMGWYRQAPGKERELVAAISQRGGRTYYADSVKGRFTISRDNAKNTVYLQMNRLKPEDTAVYYCAARTYTITGRSPQYLNAYGYWGQGTQVTVSS”: the “polyreactivity (PSR sort gate)” value is recorded as “high polyreactivity”.
On to “QVQLVESGAGLVQAGGSLRLSCAASGLIFSVYGLGWYRQEPGKERELVAAISSRGGSTYYADSVKGRFTISRVNANYTVYLQMNSLKPEDTAFYYCARRAYREHHRCQYYYWGQGTQLTVSS”, for which the “polyreactivity (PSR sort gate)” value is reported as “high polyreactivity”.
Consider “QVQLVESGAGLVQAGGSLRLSCAASGRIFDIYAMGWYRQAPGKERELVAAITRRGGTTYADSVKGRFTISRDNAKNTVYLQMNSLKPEDTAVYYCARYHWYYRVSKSDSWGQGTQVTVSS”, for which the “polyreactivity (PSR sort gate)” value is “high polyreactivity”.
To “QVQLVESGAGLVQAGGSLRLSCAASGRTFDSNAMGWYRQAPGKEREFFASIRWTVTSTYYADSVKGRFTISRDNAKNTVYLQMNSLKPEDTAVYYCNAEDYYYVGRSDYWGQGTQVTVSS” belongs “low polyreactivity”; to “QVQLVESGAGLVQAGGSLRLSCAASGRTFSGYAMGGYRQAPGKERELVAAISWRGGRTYYADSVKGRFTISRDNAKNTVYLLMYSLKPEDTAVYYCNTVGHVYYGEFDYWGQGTQVTVSS”, “high polyreactivity”.
As to “QVQLVESGAGLVQAGGSLRLSCAASGRTFVYNAMGWYRQAPGKERELVAAISSDGASTYYADSVKGRFTISRDNAKNTVYLQMNRLNPEDTAVYYCAADFSYYSYEHYYWGQATQVTVSS”, the “polyreactivity (PSR sort gate)” value is “low polyreactivity”.
As to “QVQLVESGAGLVQAGGSLRLSCAASGRTFWSNAMGWYRQAPGKEREFVAAIRSTVGSTYYADSVKGRFTISRDNAKNTVYLQMNSLNPEDTAVYYCYVSSGYYAYYYWGQGTQVTVSS”, the “polyreactivity (PSR sort gate)” value is on record as “high polyreactivity”.
Consider “QVQLVESGAGLVQAGGSLRLSCAASGSILYINTMGWYRQAPGKERELVAAITSSGGSTYYADSVKGRFTISRDNAKNTVDLQMNSLKPEDTAVYYCAAVGYYGGYNYWGQGTQVTVSS”, for which the “polyreactivity (PSR sort gate)” value is reported as “low polyreactivity”.
With “QVQLVESGAGLVQAGGSLRLSCAASGSIYVYAMGWSRQAPGKERELVAAISWSDGSTYYADSVKGRFTISRDNAKNTVYLQMNSLKPEDTAVYYCNAYGIQVDTYWQDRVEYDYWGQGTQVTVSS”, the “polyreactivity (PSR sort gate)” value is “high polyreactivity”.
Take “QVQLVESGAGLVQAGGSLRLSCAASGSTFSYNAMGWYRQAPGKERELVAAISRRGDSTYYADSVKGRFTISRDNAKNTVYLQMNSLKTEDTAVYYCYAVTYYSHRYFSWYSRKGYDYWGQGTEVTVSS”: the “polyreactivity (PSR sort gate)” value was “high polyreactivity”.
To “QVQLVESGAGLVQAGGSLRLSCAASGSTLYRYAMGWYRQAPGKERELVAAISRRGDSTYYADSVKGRFTISRDNAKNTVYLQMNSLKPEDTAVYYCNTARSAGKYDYWGQGTQVTVSS” belongs “high polyreactivity”; to “QVQLVESGAGLVQAGGSLRLSCAASGTIFRDYAMGWYRQAPGKERELVAAISSDGSTYYADSVKGRFTISRDNAKNTVYLEMNSLKPEDTAAYYCNARSYYPWEGFDYWGQGTQVTVSS”, “low polyreactivity”; to “QVQLVESGAGLVQAGGSLRLSCAASGYIFLRYAMGWSRQAPGKERELVAAIRGGSTNYADSVKGRFTISRDNAKNTVYLQMNSLKPEDTAVYYCAARGSKKQAYGYWGQGTQVTVSS”, “high polyreactivity”.
As to “QVQLVESGAGLVQAGGSLRLSCAASRRIIYKYAMGWYSQAPGKERELVAAITSGGSTYYADSVKGRYTISRDNAKNTVDLQMNSLKPQDTAVYYCAASYARLSVWYDYWRQGTQVTVSS”, the “polyreactivity (PSR sort gate)” value is on record as “high polyreactivity”.
Turning to “QVQLVESGAGLVQAGGSLRLSCAATGLTFDYNAMGWYRKAPGKERELVAAITWSGGSTYYADSVKGRFTISRDNAKNTVYLQMNSLKTEDTAVYYCATESYGLDYYDEYNYWGQGTQVTVSS”, the “polyreactivity (PSR sort gate)” value is “low polyreactivity”.
Regarding “QVQLVESGAGLVQAGGSLRLSCAPSGNIFSVYAMGWYRHAPGKARELVARITKTVGGTYYADSVKGRFTISRDNAKNTVYLQMNSLKPEDTAVYYCAARVWTGNGGSKGAYDYWGQGTQVTVSS”, the “polyreactivity (PSR sort gate)” value is “high polyreactivity”.
In the case of “QVQLVESGAGLVQAGGSLRLSCAPSGSTFMTYAMGWYRQAPGKERELVAAIRWSGGGTYYADSVKGRFTISRDNAKNTVYLQMNSLKPEDTAVYFCAADHFNYTTGRDYWGQGTQVTVSS”, the “polyreactivity (PSR sort gate)” value was “low polyreactivity”.
For “QVQLVESGAGLVQAGGSLRLSCASSGSIFVSNAMGWYRKAPGKERELVAAISQSGGSTYYADSVKGRFTISRDNAKNTVYLLMNSLKPEDTAVYYCATPIRSGFRIYDYWGQGTQVTVSS”, the “polyreactivity (PSR sort gate)” value was “low polyreactivity”.
On to “QVQLVESGAGLVQAGGSLRLSCASSGYIFDWYAMGWYRQAHGKERELGAAISGRGGSTYYADSVKGRFTISRDNSKNTVYLQMYSLKPEYTAVYYCNAALSPWGYNYWGQGTQVTVSS”, for which the “polyreactivity (PSR sort gate)” value was “high polyreactivity”.
With “QVQLVESGAGLVQAGGSLRLSCDASGSIFSWYAMGWYRQARGKERELVAAITWSGGSTYYADSVKGRFTISRDNAKNTVYLEMNSLKPEDTAVYYCNTYSYYAFDWGLGTQVTVSS”, the “polyreactivity (PSR sort gate)” value is recorded as “high polyreactivity”.
To “QVQLVESGAGLVQAGGSLRLTCAASGIIFPFYAMGWYRQAPGKERELVAGITSGGDTYYADSVKGRFTISRDNAKNTVYLQMNSLKPEDTAVSYCAAVYRRQYGYWGQGTQVTVSS” belongs “high polyreactivity”; to “QVQLVESGAGLVQAGGSLRVSCAASGSIFSYYTMGWYRQPPGKERELVAAITYRGGSTYYADSVKGRFTISRDNAKNTVYLQRNSLKPEDTAVYYCAARTRNGAGYYWGQGTQVTVSS”, “high polyreactivity”; to “QVQLVESGAGLVQARGSLRLSCAPSGRNFTYYAMGWYRQAPGTETELVAAISWSGGRTYYADSVKGRFTISRDNAKNTVYLKMNSLKPEDTAVYYCAADYYAFKFGRFDYWGQGTQVTVSS”, “high polyreactivity”.
With “QVQLVESGAGLVQEGGSLRLSCAASGRIFQTYTMGWYRQAPGKERELVAAISASGGRTYYADSVKGRFTISRDNAKNTVYLQMNSLKPEDTAVYYCAADIRGYDYWGQGTQVTVSS”, the “polyreactivity (PSR sort gate)” value was “high polyreactivity”.
To “QVQLVESGAVLVQAGGSIRLSCAASGSSFPYYAMGWYRQAPVKERELVATISQDGGRTYADSVKGRFTISRDNAKNTVYLQMNSLKPEDTAVDYCAADYSVNYDFGYWGQGTQVTVSS” belongs “low polyreactivity”; to “QVQLVESGEGLVQAGGSLRLSCAASGITFGWYAMGWYRQAPGKERELVASISSSGSTNYADSVKGRFTISRDNAKNTVYLQMNSLKPEDTAVYYCNKDYLLSHYYIYVIEGDYWGQGTQVTVSS”, “low polyreactivity”; to “QVQLVESGEGLVQAGGSLRLSCAASGRTFYANAMGWYRQAPGKERELVASITTSGGTYYADSVKGRFTISRDNAKNTVYLQMNSLKPEDTAVYYCAADVYRSIGYDYWGQGTQVTVSS”, “low polyreactivity”.
To “QVQLVESGEGLVQAGGSLRLSCAASGSIFTYNAMGWYRQAPGKERELVAAISRGGSTYYADSVKGRFSISRDNAKNTVNLQMNSLIPEDTAVYYCNARRYRHDGYWGQGTQVTVSS” belongs “high polyreactivity”.
Consider “QVQLVESGGAIVQAGGSHRLRCAASGSILGRYAMAWYRQAPGKERELVAAISRRGGSTTYADSVKGRFTISRDNAKNTVYFQMNSLKPEDTALYYCNTVSSWGRNYQDEYDYWGQGTQVSVSS”, for which the “polyreactivity (PSR sort gate)” value is on record as “high polyreactivity”.
Consider “QVQLVESGGALDQAGGSLRVSCAASGSIFPIYTMGWYRQAPGKERELVAGIRYRGGNTYYADSVKGRFTISRDNAKNTVYLQMNSLNPEDTAVYYCAARAYYRYLYKLNYWGQGTQVTVSS”, for which the “polyreactivity (PSR sort gate)” value was “high polyreactivity”.
Turning to “QVQLVESGGALLQAGGSLRLSCAASGRIFYHYAMGWYRQAPGKESELVAASTWSGVSTYYADSVKGRFTISRDNAKNTVDLQMNRLIPADTAVYYCATSSPYGVRRYSRGSWGQGTQVTVSS”, the “polyreactivity (PSR sort gate)” value was “high polyreactivity”.
To “QVQLVESGGALVQAGCSLRLSCAASGRTFYRNAMGWYRQAPGKERELVARISRNGGTTYYADSVKGRFTISRDNAKNTVYLQMNSLIPEYTAVYYCAAPIYDGARGDYWGQGTQVTVCS” belongs “high polyreactivity”; to “QVQLVESGGALVQAGGRLRLSCAASGSTFYTYAMGWYRHAPGKEREIVAAISWSDDSTYYADSVKGRFTISRDNAKNTVYLQMTSLKPEDTAVYYCAAEWGQRGGGGYYYWGQGTQVTVSS”, “low polyreactivity”.
As for “QVQLVESGGALVQAGGSLRLSCAASGFIFNHYAMGWYRQAPGKEREFVAAISWSGGSTYYADSVKGRFTISRDNAKNTVYLQMNSLKPEETAVYYCAASYNGLWHGDYDYWGQGTQVTVSS”, the “polyreactivity (PSR sort gate)” value is given as “low polyreactivity”.
To “QVQLVESGGALVQAGGSLRLSCAASGFIFSYYVMGWYRQAPGKERELVAAITTSGDSTYYADSVKGRFTISRDNAKNTVYLQMNSLKPEDTAVYYCAADIYYETIWHYGYWGQGTQVTVSS” belongs “high polyreactivity”; to “QVQLVESGGALVQAGGSLRLSCAASGFIFYSWYAMGWYRQAPGKQRELVAAIRSGGSTYYADSVKGRFTISRDNAKNTVYLQMNSLKPEDTAVYYCAVKYSWSEYGYWGQGTQVTVSS”, “low polyreactivity”; to “QVQLVESGGALVQAGGSLRLSCAASGFTFRGYAMGWYRQAPGKEMELVAAIRGGGGRTYYADSVKGRFTISRDNAKNTVYLQMNSLKPEDTAGYYCAASYYDYSDVRSDYWGQGTQVTVSS”, “high polyreactivity”.
